Test results: US6623738 (University of California, dated 2003)

Columns and labels:
[1] = target: T1, alkaline phosphatase (AP) alone (UniProt P05187 23-511); experiment: AP histochemistry on transfected COS cells
T1 construct: Control protein; also called alkaline phosphatase protein

[2] = target: T2, Sema E-AP fusion protein (mouse Sema E fused to alkaline phosphatase) (mouse, UniProt Q62181 21-751); experiment: AP fusion binding to transfected COS cells
T2 construct: written as in the name; Partially purified conditioned medium; not shown: secreted alkaline phosphatase of vector APtag-4
T2 sequence (looked up): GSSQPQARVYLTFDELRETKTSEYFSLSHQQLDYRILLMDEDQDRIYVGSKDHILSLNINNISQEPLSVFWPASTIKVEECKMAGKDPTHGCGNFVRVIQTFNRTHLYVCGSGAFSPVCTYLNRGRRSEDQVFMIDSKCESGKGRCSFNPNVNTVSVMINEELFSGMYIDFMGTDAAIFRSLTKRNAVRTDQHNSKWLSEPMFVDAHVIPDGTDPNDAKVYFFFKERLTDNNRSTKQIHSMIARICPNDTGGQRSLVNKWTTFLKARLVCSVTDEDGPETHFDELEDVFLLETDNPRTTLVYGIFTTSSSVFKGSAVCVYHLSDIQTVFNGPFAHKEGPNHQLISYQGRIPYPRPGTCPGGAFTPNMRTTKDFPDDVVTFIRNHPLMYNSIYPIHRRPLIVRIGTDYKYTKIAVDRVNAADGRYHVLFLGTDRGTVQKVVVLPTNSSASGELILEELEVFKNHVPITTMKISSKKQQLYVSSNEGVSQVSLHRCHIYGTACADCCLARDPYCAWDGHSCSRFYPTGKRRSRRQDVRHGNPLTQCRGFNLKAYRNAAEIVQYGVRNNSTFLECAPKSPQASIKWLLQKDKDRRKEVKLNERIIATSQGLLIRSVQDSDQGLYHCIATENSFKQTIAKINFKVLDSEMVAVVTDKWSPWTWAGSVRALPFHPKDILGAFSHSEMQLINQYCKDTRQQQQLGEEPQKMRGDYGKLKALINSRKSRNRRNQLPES

[3] = target: T3, AP fusion with Drosophila D-Sema II (Drosophila, UniProt Q24323 26-724); experiment: AP fusion binding to transfected COS cells
T3 construct: also called Drosophila Sema II; not shown: alkaline phosphatase (AP) reporter
T3 sequence (looked up): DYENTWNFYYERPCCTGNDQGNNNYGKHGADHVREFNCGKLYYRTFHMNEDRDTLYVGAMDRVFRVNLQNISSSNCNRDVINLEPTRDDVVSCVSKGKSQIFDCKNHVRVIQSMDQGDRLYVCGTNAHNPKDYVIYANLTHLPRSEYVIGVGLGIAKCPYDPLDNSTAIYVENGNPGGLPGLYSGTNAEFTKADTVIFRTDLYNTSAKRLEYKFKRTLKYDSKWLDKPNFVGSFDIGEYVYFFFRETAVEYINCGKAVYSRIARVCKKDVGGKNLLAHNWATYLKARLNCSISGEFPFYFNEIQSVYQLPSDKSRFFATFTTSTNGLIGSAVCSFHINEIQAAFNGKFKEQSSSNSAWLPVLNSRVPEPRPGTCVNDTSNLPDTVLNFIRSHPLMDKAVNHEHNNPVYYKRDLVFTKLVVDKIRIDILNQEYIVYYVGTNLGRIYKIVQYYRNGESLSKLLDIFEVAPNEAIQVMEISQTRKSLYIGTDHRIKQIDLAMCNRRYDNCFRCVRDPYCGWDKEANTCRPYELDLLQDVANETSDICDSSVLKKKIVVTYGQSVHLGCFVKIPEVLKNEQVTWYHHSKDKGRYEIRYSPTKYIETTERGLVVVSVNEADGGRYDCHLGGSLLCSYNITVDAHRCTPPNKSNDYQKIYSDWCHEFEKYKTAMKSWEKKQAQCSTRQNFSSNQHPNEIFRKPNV

[4] = target: T4, AP fusion with the ectodomain of Sema VIa (UniProt O35464 19-649); experiment: AP fusion binding to transfected COS cells
T4 construct: extracellular domain; also called Sema VIa ectodomain; not shown: alkaline phosphatase (AP) reporter
T4 sequence (looked up): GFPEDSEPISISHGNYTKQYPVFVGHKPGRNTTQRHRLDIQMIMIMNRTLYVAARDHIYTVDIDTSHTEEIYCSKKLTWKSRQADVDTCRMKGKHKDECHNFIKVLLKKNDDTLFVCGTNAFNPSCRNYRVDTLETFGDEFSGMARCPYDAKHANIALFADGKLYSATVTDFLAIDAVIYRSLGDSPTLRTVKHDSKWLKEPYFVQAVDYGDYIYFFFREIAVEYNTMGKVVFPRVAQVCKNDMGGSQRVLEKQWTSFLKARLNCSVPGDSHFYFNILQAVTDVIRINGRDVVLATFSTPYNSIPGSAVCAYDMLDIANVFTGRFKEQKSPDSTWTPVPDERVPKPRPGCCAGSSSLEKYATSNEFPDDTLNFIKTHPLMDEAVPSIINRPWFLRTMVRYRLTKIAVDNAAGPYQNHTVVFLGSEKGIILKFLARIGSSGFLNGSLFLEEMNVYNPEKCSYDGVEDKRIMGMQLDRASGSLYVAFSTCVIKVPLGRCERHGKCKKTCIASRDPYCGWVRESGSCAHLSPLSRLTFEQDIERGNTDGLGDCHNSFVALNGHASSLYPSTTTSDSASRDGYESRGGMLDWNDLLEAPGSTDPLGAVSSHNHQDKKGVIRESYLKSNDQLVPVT

T1 sequence (P05187 23-511 limits assumed): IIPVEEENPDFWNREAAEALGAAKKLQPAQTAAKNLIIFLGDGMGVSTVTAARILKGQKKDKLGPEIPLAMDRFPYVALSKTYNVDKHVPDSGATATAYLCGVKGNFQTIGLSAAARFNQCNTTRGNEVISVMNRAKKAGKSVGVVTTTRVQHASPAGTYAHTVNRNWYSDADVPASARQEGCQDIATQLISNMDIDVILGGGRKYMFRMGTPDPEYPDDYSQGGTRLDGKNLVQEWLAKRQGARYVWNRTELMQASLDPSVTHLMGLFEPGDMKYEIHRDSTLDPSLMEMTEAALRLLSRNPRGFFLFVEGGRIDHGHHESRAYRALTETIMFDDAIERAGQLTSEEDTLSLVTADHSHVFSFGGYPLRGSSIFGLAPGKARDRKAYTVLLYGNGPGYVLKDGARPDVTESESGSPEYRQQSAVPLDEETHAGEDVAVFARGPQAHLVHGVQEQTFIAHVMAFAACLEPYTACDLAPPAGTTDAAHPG

B1: mouse neuropilin-2(b5), myc-tagged, expressed in COS-7 cells (receptor, not shown: small tags and cut ends)
chain: RSQQDPPCGGRPNSKDAGYITSPGYPQDYPSHQNCEWIVYAPEPNQKIVLNFNPHFEIEKHDCKYDFIEIRDGDSESADLLGKHCGNIAPPTIISSGSVLYIKFTSDYARQGAGFSLRYEIFKTGSEDCSKNFTSPNGTIESPGFPEKYPHNLDCTFTILAKPRMEIILQFLTFDLEHDPLQVGEGDCKYDWLDIWDGIPHVGPLIGKYCGTKTPSKLRSSTGILSLTFHTDMAVAKDGFSARYYLIHQEPPENFQCNVPLGMESGRIANEQISASSTFSDGRWTPQQSRLHGDDNGWTPNLDSNKEYLQVDLRFLTMLTAIATQGAISRETQKGYYVKSYKLEVSTNGEDWMVYRHGKNHKIFQANNDATEVVLNKLHMPLLTRFIRIRPQTWHLGIALRLELFGCRVTDAPCSNMLGMLSGLIADTQISASSTREYLWSPSAARLVSSRSGWFPRNPQAQPGEEWLQVDLGTPKTVKGVIIQGARGGDSITAVEARAFVRKFKVSYSLNGKDWEYIQDPRTQQTKLFEGNMHYDTPDIRRFDPVPAQYVRVYPERWSPAGIGMRLEVLGCDWTDSKPTVETLGPTVKSEETTTPYPMDEDATECGENCSFEDDKDLQLPSGFNCNFDFPEETCGWVYDHAKWLRSTWISSANPNDRTFPDDKNFLKLQSDGRREGQYGRLISPPVHLPRSPVCMEFQYQAMGGHGVALQVVREASQESKLLWVIREDQGSEWKHGRIILPSYDMEYQIVFEGVIGKGRSGEISIDDIRISTDVPLENCMEPISAFAGEDFKGGTLPPGTEPTVDTVPVQPIPAYWYYVMAAGGAVLVLASVVLALVLHYHRFRYAAKKTDHSITYKTSHYTNGAPLAVEPTLTIKLEQERGSHC
notes: also called b5 isoform of neuropilin-2; SR2(b)5
- binding result [1]: no binding
- binding result [2]: binds
- binding result [3]: no binding
- binding result [4]: no binding
